# In publication PMC314469, “Protein Interaction Networks by Proteome Peptide Scanning” (PLoS Biology, 2004):
# T1: Rvs167 SH3 (RV167_YEAST), P39743
# T1 chain: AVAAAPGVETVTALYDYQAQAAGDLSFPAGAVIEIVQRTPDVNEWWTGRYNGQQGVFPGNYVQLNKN
# T2: Boi1 SH3 (BOI1_YEAST), P38041
# T2 chain: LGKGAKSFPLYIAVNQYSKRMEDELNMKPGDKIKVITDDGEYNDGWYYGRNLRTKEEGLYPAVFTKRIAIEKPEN
# T3: Yhr016c SH3 (YSC84_YEAST), P32793
# T3 chain: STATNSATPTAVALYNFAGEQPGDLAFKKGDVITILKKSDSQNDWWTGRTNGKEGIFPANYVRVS
# T4: Yfr024 SH3 (LSB3_YEAST), P43603
# T4 chain: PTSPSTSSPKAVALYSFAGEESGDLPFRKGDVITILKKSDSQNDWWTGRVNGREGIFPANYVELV
# T5: Boi2 SH3 (BOI2_YEAST), P39969
# T5 chain: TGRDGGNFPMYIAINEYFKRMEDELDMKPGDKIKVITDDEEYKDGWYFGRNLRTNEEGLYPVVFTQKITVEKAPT
# Biological target: T1, Rvs167 SH3 (RV167_YEAST), P39743
# Experiment: SPOT array
row,Binder,"normalised SPOT signal, Boehringer light units (BLU); mean over the file's lines of this peptide"
1,EDTPDLPQKTGIRK [YJR137C 1229-1242],14.6
2,ESHPELPNKDVKLD [YGL125W 158-171],25.4
3,DYLPPVPEKNAGKQ [YDR322W 274-287],42.3
4,DYNPPPPSRNSPIR [YJL204C 669-682],9.9
5,EAAPQLPSRSSAAP [YCR088W 505-518],23100
6,DYLPQHPHRTSSLP [YDR103W 109-122],109
7,EAPPAKPSRSDIID [YOR066W 225-238],31.9
8,EIAPLIPKKPALRK [YDR080W 597-610],80

# The remaining lines, values ahead:
row,"normalised SPOT signal, Boehringer light units (BLU); mean over the file's lines of this peptide",Binder
1,45.6,EANPDNPKKLDLKA [YER166W 783-796]
2,69.9,EFSPTYPSKLFVPR [YJR110W 189-202]
3,6410,EEKPLLPTRPNKAE [YPR171W 203-216]
4,3120,DYNPTIPPRSKDRP [YOL070C 274-287]
5,16.4,EFIPPDPTKVTEFE [YNL025C 151-164]
6,26300,EEHPPLPARRKSEE [YOR042W 80-93]
7,5.7,EEHPSSPGKKQITY [YLR238W 11-24]
8,59.1,EHKPVSPDKIGTFT [YDR443C 81-94]
9,51.1,EESPVKPLKITQKA [YLL021W 583-596]
10,322,DYQPLSPPRELDPD [YAR014C 249-262]
11,38.5,EGKPLFPGKDHVHQ [YLR113W 212-225]

# Biological target: T2, Boi1 SH3 (BOI1_YEAST), P38041
# Experiment: SPOT array
row,Binder,"normalised SPOT signal, Boehringer light units (BLU); mean over the file's lines of this peptide"
1,EDTPDLPQKTGIRK [YJR137C 1229-1242],24.7
2,ESHPELPNKDVKLD [YGL125W 158-171],128
3,DYLPPVPEKNAGKQ [YDR322W 274-287],47.4
4,DYNPPPPSRNSPIR [YJL204C 669-682],194
5,EAAPQLPSRSSAAP [YCR088W 505-518],102
6,DYLPQHPHRTSSLP [YDR103W 109-122],17.6
7,EAPPAKPSRSDIID [YOR066W 225-238],70.5
8,EIAPLIPKKPALRK [YDR080W 597-610],110

# Other lines, results leading:
row,"normalised SPOT signal, Boehringer light units (BLU); mean over the file's lines of this peptide",Binder
1,79.1,EANPDNPKKLDLKA [YER166W 783-796]
2,53.2,EFSPTYPSKLFVPR [YJR110W 189-202]
3,0,EEKPLLPTRPNKAE [YPR171W 203-216]
4,35500,DYNPTIPPRSKDRP [YOL070C 274-287]
5,98,EFIPPDPTKVTEFE [YNL025C 151-164]
6,619,EEHPPLPARRKSEE [YOR042W 80-93]
7,84,EEHPSSPGKKQITY [YLR238W 11-24]
8,58.8,EHKPVSPDKIGTFT [YDR443C 81-94]
9,59.6,EESPVKPLKITQKA [YLL021W 583-596]
10,122,DYQPLSPPRELDPD [YAR014C 249-262]
11,89.1,EGKPLFPGKDHVHQ [YLR113W 212-225]

# Biological target: T3, Yhr016c SH3 (YSC84_YEAST), P32793
# Experiment: SPOT array
row,Binder,"normalised SPOT signal, Boehringer light units (BLU); mean over the file's lines of this peptide"
1,EDTPDLPQKTGIRK [YJR137C 1229-1242],100
2,ESHPELPNKDVKLD [YGL125W 158-171],75.4
3,DYLPPVPEKNAGKQ [YDR322W 274-287],198
4,DYNPPPPSRNSPIR [YJL204C 669-682],323
5,EAAPQLPSRSSAAP [YCR088W 505-518],93000
6,DYLPQHPHRTSSLP [YDR103W 109-122],172
7,EAPPAKPSRSDIID [YOR066W 225-238],2010
8,EIAPLIPKKPALRK [YDR080W 597-610],0

# Second part, the binder after the results:
row,"normalised SPOT signal, Boehringer light units (BLU); mean over the file's lines of this peptide",Binder
1,247,EANPDNPKKLDLKA [YER166W 783-796]
2,143,EFSPTYPSKLFVPR [YJR110W 189-202]
3,62400,EEKPLLPTRPNKAE [YPR171W 203-216]
4,2400,DYNPTIPPRSKDRP [YOL070C 274-287]
5,53.3,EFIPPDPTKVTEFE [YNL025C 151-164]
6,72200,EEHPPLPARRKSEE [YOR042W 80-93]
7,24.5,EEHPSSPGKKQITY [YLR238W 11-24]
8,181,EHKPVSPDKIGTFT [YDR443C 81-94]
9,51.3,EESPVKPLKITQKA [YLL021W 583-596]
10,313,DYQPLSPPRELDPD [YAR014C 249-262]
11,91.1,EGKPLFPGKDHVHQ [YLR113W 212-225]

# Biological target: T4, Yfr024 SH3 (LSB3_YEAST), P43603
# Experiment: SPOT array
row,Binder,"normalised SPOT signal, Boehringer light units (BLU); mean over the file's lines of this peptide"
1,EDTPDLPQKTGIRK [YJR137C 1229-1242],5620
2,ESHPELPNKDVKLD [YGL125W 158-171],139
3,DYLPPVPEKNAGKQ [YDR322W 274-287],681
4,DYNPPPPSRNSPIR [YJL204C 669-682],874
5,EAAPQLPSRSSAAP [YCR088W 505-518],55000
6,DYLPQHPHRTSSLP [YDR103W 109-122],206
7,EAPPAKPSRSDIID [YOR066W 225-238],3400
8,EIAPLIPKKPALRK [YDR080W 597-610],5120

# Now from value to binder:
row,"normalised SPOT signal, Boehringer light units (BLU); mean over the file's lines of this peptide",Binder
1,257,EANPDNPKKLDLKA [YER166W 783-796]
2,796,EFSPTYPSKLFVPR [YJR110W 189-202]
3,46300,EEKPLLPTRPNKAE [YPR171W 203-216]
4,6750,DYNPTIPPRSKDRP [YOL070C 274-287]
5,26.8,EFIPPDPTKVTEFE [YNL025C 151-164]
6,31200,EEHPPLPARRKSEE [YOR042W 80-93]
7,44.3,EEHPSSPGKKQITY [YLR238W 11-24]
8,60.4,EHKPVSPDKIGTFT [YDR443C 81-94]
9,290,EESPVKPLKITQKA [YLL021W 583-596]
10,506,DYQPLSPPRELDPD [YAR014C 249-262]
11,5.2,EGKPLFPGKDHVHQ [YLR113W 212-225]

# Biological target: T5, Boi2 SH3 (BOI2_YEAST), P39969
# Experiment: SPOT array
row,Binder,"normalised SPOT signal, Boehringer light units (BLU); mean over the file's lines of this peptide"
1,EDTPDLPQKTGIRK [YJR137C 1229-1242],18
2,ESHPELPNKDVKLD [YGL125W 158-171],22.1
3,DYLPPVPEKNAGKQ [YDR322W 274-287],91.7
4,DYNPPPPSRNSPIR [YJL204C 669-682],31.1
5,EAAPQLPSRSSAAP [YCR088W 505-518],20.3
6,DYLPQHPHRTSSLP [YDR103W 109-122],33.4
7,EAPPAKPSRSDIID [YOR066W 225-238],54.9
8,EIAPLIPKKPALRK [YDR080W 597-610],90.8

# The remaining lines, values ahead:
row,"normalised SPOT signal, Boehringer light units (BLU); mean over the file's lines of this peptide",Binder
1,7.6,EANPDNPKKLDLKA [YER166W 783-796]
2,33.3,EFSPTYPSKLFVPR [YJR110W 189-202]
3,54.8,EEKPLLPTRPNKAE [YPR171W 203-216]
4,11300,DYNPTIPPRSKDRP [YOL070C 274-287]
5,39.5,EFIPPDPTKVTEFE [YNL025C 151-164]
6,53.3,EEHPPLPARRKSEE [YOR042W 80-93]
7,17.6,EEHPSSPGKKQITY [YLR238W 11-24]
8,21.4,EHKPVSPDKIGTFT [YDR443C 81-94]
9,40.1,EESPVKPLKITQKA [YLL021W 583-596]
10,8.8,DYQPLSPPRELDPD [YAR014C 249-262]
11,11,EGKPLFPGKDHVHQ [YLR113W 212-225]
